Assay results: publication PMC9283627, “Auxotrophic and prototrophic conditional genetic networks reveal the rewiring of transcription factors in Escherichia coli”

Biological target: T1, YneJ (Escherichia coli (K-12 strain not …, UniProt P77309 1-293))
T1 sequence: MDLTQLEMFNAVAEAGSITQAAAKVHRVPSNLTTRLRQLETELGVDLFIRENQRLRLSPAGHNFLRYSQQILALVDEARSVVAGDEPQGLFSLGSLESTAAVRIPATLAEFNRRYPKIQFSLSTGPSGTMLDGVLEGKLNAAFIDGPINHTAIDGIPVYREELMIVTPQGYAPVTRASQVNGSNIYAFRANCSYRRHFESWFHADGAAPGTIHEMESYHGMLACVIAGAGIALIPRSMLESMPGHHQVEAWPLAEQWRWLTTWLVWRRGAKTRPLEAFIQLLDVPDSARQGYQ
Test: fluorescence polarization; 2 mM Gln; PBS (pH 6.5), 0.5 mM EDTA, 7 mM MgCl2, 100 mM KCl, 5 mM phosphate, herring sperm DNA, 50 C; 10 nM labeled dsDNA
Conditions: protein: recombinant; tags: N-terminal His6 (Methods; called YneJ-His6 in text); chain copies: 4; label: 6-FAM on S41 (printed at the 5' end; Methods say 3' end); blunt

B1: sad-yneJ consensus motif 21 bp (dsDNA)
DNA 1: GGGTTCTCGATTCGTGAAGGG
DNA 2: CCCTTCACGAATCGAGAACCC
**Q.** Does B1 bind?
**A.** Result: binds
